This is an account of results in patent US20210038648A1 (THOMAS JEFFERSON UNIVERSITY, published 2021).

In assay [1] the target is T1, human GUCY2C (hGUCY2C) on cells (human, UniProt P25092 24-1073).
T1 construct: whole, on cells; also called guanylyl cyclase C; GCC
Nature of the assay: flow cytometry on CT26.hGUCY2C cells. From the text:
Cells were authenticated by the original suppliers and routinely authenticated by morphology, growth, antibiotic resistance (where appropriate GUCY2C and β-galactosidase expression, and pattern of metastasis in vivo and routinely screened for mycoplasma using the Universal Mycoplasma Detection Kit (ATCC, Cat. No. 30-1012K). Before injection into mice, cells were routinely cultured for <2weeks. The gene encoding human GUCY2C was codon-optimized and synthesized (Gene Art, Life Technologies) and cloned into the retroviral construct pMSCVpuro (Clontech). CT26.hGUCY2C and CT26.CL25.hGUCY2C were generated by transducing CT26 and CT26.CL25 cells with retroviral supernatants encoding hGUCY2C, followed by selection with puromycin. […] The single chain variable fragment (scFv) from the human GUCY2C-specific antibody 5F9 was cloned into the pFUSE-rIgG-Fc2 (IL2ss) plasmid (Invivogen), producing a 5F9 scFv fusion protein with rabbit Fc (5F9-rFc), 5F9-rFc was collected in supernatants of transfected 293F cells (Life Technologies), titrated in ELISA plates (Nunc-Immuno PolySorp) coated with BSA or recombinant 6×His-tagged hGUCY2C extracellular domain (6×His-hGUCY2CECD) protein purified under contract from HEK293-6E cells by GenScript and detected with HRP-conjugated goat anti-rabbit (Jackson ImmunoResearch). […]
(In flow cytometry, cells or beads pass a laser one at a time.)

The target of assay [2] is T2, recombinant 6xHis-tagged hGUCY2C extracellular domain (6xHis-hGUCY2CECD) (human, UniProt P25092 24-430).
T2 construct: extracellular domain; also called purified hGUCY2C extracellular domain; immobilized hGUCY2CECD protein; not shown: 6xHis tag
Nature of the assay: ELISA; plate coated with 6xHis-hGUCY2CECD, 5F9-rFc titrated. (ELISA stands for enzyme-linked immunosorbent assay.)

T2 sequence (P25092 24-430): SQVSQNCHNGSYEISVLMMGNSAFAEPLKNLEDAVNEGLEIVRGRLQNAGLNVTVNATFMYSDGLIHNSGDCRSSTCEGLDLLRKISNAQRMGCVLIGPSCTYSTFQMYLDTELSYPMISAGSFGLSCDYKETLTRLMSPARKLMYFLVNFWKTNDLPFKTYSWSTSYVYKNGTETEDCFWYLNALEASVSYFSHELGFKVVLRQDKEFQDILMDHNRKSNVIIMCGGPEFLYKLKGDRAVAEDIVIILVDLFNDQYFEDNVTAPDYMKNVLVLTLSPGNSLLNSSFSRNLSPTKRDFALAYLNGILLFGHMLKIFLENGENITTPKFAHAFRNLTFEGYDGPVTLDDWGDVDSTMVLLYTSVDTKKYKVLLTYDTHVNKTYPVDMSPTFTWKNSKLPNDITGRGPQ
T1 sequence (P25092 24-1073): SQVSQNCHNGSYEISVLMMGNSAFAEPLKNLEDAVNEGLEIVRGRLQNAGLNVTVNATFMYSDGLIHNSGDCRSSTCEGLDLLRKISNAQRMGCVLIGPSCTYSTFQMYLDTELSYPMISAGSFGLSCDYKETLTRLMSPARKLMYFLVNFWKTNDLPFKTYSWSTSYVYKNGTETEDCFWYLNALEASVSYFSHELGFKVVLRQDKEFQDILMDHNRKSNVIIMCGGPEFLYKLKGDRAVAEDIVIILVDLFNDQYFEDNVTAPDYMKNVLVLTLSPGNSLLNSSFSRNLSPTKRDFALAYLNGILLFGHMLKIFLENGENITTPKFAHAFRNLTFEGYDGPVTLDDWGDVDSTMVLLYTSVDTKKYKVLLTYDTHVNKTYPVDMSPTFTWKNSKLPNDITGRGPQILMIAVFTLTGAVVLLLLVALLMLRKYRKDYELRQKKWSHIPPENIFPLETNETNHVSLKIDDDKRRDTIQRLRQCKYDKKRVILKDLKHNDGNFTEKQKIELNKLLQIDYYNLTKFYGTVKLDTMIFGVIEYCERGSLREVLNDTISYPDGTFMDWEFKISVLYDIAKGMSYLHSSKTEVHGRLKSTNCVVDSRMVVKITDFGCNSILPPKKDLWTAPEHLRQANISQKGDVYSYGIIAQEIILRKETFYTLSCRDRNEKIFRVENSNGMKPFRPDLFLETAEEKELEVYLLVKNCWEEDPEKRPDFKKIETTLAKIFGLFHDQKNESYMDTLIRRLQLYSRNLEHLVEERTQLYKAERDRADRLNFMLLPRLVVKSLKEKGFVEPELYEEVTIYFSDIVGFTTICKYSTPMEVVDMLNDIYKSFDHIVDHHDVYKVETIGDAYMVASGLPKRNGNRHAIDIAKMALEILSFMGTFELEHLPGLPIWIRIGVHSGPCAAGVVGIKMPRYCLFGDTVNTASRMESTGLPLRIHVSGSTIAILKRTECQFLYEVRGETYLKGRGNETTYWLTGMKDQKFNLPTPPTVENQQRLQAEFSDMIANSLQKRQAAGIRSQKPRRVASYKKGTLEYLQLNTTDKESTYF

B1: 5F9 scFv fusion protein with rabbit Fc (5F9-rFc) (Fc fusion)
chain: EIVMTQSPATLSVSPGERATLSCRASQSVSRNLAWYQQKPGQAPRLLIYGASTRATGIPARFSGSGSGTEFTLTIGSLQSEDFAVYYCQQYKTWPRTFGQGTNVEIKASGGGGSGGGGSGGGGSGGGGSELQVQLQQWGAGLLKPSETLSLTCAVFGGSFSGYYWSWIRQPPGKGLEWIGEINHRGNTNDNPSLKSRVTISVDTSKNQFALKLSSVTAADTAVYYCARERGYTYGNFDHWGQGTLVTVSS
notes: Secreted from transfected 293F cells and used as supernatant; also called recombinant 5F9 antibody; 5F9 antibody; not shown: rabbit IgG Fc from plasmid pFUSE-rIgG-Fc2 (IL2ss) (Invivogen)
Take B1: the binding result in assay [1] and in assay [2] was “binds” in each case.
